Reference: patent US20190202920A1 (F STAR BETA, published 2019)
Numbering of substitutions follows the chain as printed.

Columns and labels:
[1] = molecular target: T1, cell surface EGFR on human cancer cell lines (A431NS, MDA-MB-468, U87MG) (human, UniProt P00533 25-1210); assay: flow cytometry, blocking of biotinylated EGF binding to MDA-MB-468 cells
T1 construct: whole, on cells; The cell line of each entry is named under assay; also called EGFR on A431NS cells; EGFR on MDA-MB-468 cells

[2] = molecular target: T2, His-tagged human EGFR (Sino Biological) (human, UniProt P00533 25-645); assay: SPR (BIAcore T200), mAb^2 captured on anti-human Fab chip, His-tagged human EGFR as analyte, 1:1 fit
T2 construct: also called His-tagged EGFR

[3] = molecular target: T3, cell surface EGFR on HCC827 cells (E746-A750 deletion) (UniProt P00533 25-1210); assay: flow cytometry on HCC827 cells
T3 construct: whole, on cells; Residues E746-A750 are deleted; a deletion cannot be written as a substitution

[4] = molecular target: T4, cell surface EGFR on NCI-H1975 cells (mutated EGFR L858R and T790M) (UniProt P00533 25-1210, limits assumed); assay: flow cytometry on NCI-H1975 cells
T4 construct: whole, on cells

B1: mAb^2 RI/FS1-60 (bispecific antibody, human IgG2, kappa)
heavy: QVQLQESGPGLVKPSETLSLTCTVSGGSISIYYWSWIRQPPGKGLEWIGYVYYSGSTNYNPSLKSRVTISVDTSKNQFSLKLNSVTAADTAVYYCARGGYDFWSGYFDYWGQGTLVTVSSASTKGPSVFPLAPCSRSTSESTAALGCLVKDYFPEPVTVSWNSGALTSGVHTFPAVLQSSGLYSLSSVVTVPSSNFGTQTYTCNVDHKPSNTKVDKTVERKCCVECPPCPAPPVAGPSVFLFPPKPKDTLMISRTPEVTCVVVDVSHEDPEVQFNWYVDGVEVHNAKTKPREEQFNSTFRVVSVLTVVHQDWLNGKEYKCKVSNKGLPAPIEKTISKTKGQPREPQVYTLPPSRDELDEGGPVSLTCLVKGFYPSDIAVEWESTYGPENNYKTTPPVLDSDGSFFLYSRLTVSHWRWYSGNVFSCSVMHEALHNHYTQKSLSLSPG
light: not shown
B1 was tested, and the IC50 [1] was 0.45 nM and the Kd [2] was 3.6 nM.

B2: mAb^2 RI/FS1-65 (bispecific antibody, human IgG2, kappa)
heavy: B1 heavy with R409K, H414Y, Y418V, S419K
light: not shown
Binder B2 has an EC50 [3] of 3.56 nM, an EC50 [4] of 2.16 nM and a Kd [2] of 1.8 nM.

B3: mAb^2 FI/FS1-60 (bispecific antibody, human IgG1, kappa)
heavy: QVQLVQPGAEVKKPGTSVKLSCKASGYTFTTYWMHWVRQAPGQGLEWIGEINPTNGHTNYNQKFQGRATLTVDKSTSTAYMELSSLRSEDTAVYYCARNYVGSIFDYWGQGTLLTVSSASTKGPSVFPLAPSSKSTSGGTAALGCLVKDYFPEPVTVSWNSGALTSGVHTFPAVLQSSGLYSLSSVVTVPSSSLGTQTYICNVNHKPSNTKVDKRVEPKSCDKTHTCPPCPAPELLGGPSVFLFPPKPKDTLMISRTPEVTCVVVDVSHEDPEVKFNWYVDGVEVHNAKTKPREEQYNSTYRVVSVLTVLHQDWLNGKEYKCKVSNKALPAPIEKTISKAKGQPREPQVYTLPPSRDELDEGGPVSLTCLVKGFYPSDIAVEWESTYGPENNYKTTPPVLDSDGSFFLYSRLTVSHWRWYSGNVFSCSVMHEALHNHYTQKSLSLSPG
light: DIVMTQSPDSLAMSLGERVTLNCKASENVVSYVSWYQQKPGQSPKLLIYGASNRESGVPDRFSGSGSATDFTLTISSVQAEDVADYHCGQSYNYPYTFGQGTKLEIKRTVAAPSVFIFPPSDEQLKSGTASVVCLLNNFYPREAKVQWKVDNALQSGNSQESVTEQDSKDSTYSLSSTLTLSKADYEKHKVYACEVTHQGLSSPVTKSFNRGEC
B3 gave an IC50 [1] of 0.71 nM and a Kd [2] of 3.5 nM.
